In patent US20130224187A1 (Alexion, published 2013):

target: T1, human C5a (human, UniProt P01031 678-751); experiment: ELISA
T1 construct: also called hC5a; free human C5a
T1 sequence: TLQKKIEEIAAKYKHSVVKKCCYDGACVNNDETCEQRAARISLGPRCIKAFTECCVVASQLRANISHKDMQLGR

Binder	binding result
5an047 (antibody, V domains shown, Murine) VH: EVQLQQSGPELVKPGASVRISCKASGYTFSDYYYMNWVKKSHGKSLEWIGYIFPKTGGTHYNQRFKGKATLTVDKSSSTAYMELRSLTSEDSAVYYCASGPFAYWGQGTLVTVSA VL: EIVLTQSPAIMSASPGEKVTMTCRASSSVSSSYLHWYQQKSGASPKLWIYSTSNLASGVPARFSGSGSGTSYSLTISSVEAEDAATYYCQQYSGYPLTFGAGTKLELKR	binds
5anG12 (antibody, V domains shown, Murine) VH: EVQLQQSGPELVKPGASVRISCKASGYTFNDYYYMNWVKQSHGKSLEWIGYIFPKTGGTHYNQRFKGKATLTVDKSSSTAYMELRSLTSEDSAVYYCASGPFAYWGQGTLVTVSA VL: QIVLTQSPAIMSASPGEKVTMTCSASSSISYMHWYQQKPGTSPKRWIYDTSKLASGVPARFSGSGSGTSYSLTISSMEAEDAATYYCHQRSSYPWTFGGGTKLEIKR	binds
5an052 (antibody, V domains shown, Murine) VH: EVQLQQSGPELVKPGASVRISCKASGYTFNDYYYMNWVKQSHGKSLEWIGYIFPKTGGTHYNQRFKGKATLTVDKSSSTAYMELRSLTSEDSAVYYCASGPFAYWGQGTLVTVSA VL: QIVLTQSPAIMSASPGEKVTLTCSASSSVSSSYLYWYQQKPGSSPKLWIYSTSNLASGVPARFSGSGSGTSYSLTISTVEAEDAASYFCHQWSSYPPTFGGGTKLEIKR	binds
5an054ME (antibody, V domains shown, Murine) VH: EVQLQQSGPELVKPGASVKISCKASGYTFTDYYYMNWVKQSHGKSLEWIGYIFPNTGGTTYNQRFKGKATLTVDKSSSTAYMELRSLTSEDSAVYYCASGPFAYWGQGTLVTVSA VL: QIVLTQSPVIMSASPGEKVTMTCSASSSVSYMYWYQQKPGSSPRLLIYDTSNLASGVPVRFSGSGSGTSYSLTISRMEAEDAATYYCQQWSSYPPTFGAGTKLELKR	binds
5anE11 (antibody, V domains shown, Murine) VH: EVQLQQSGPELVKPGASVRISCKASGYTFSDYYYMNWVKKSHGKSLEWIGYIFPKTGGTHYNQRFKGKATLTVDKSSSTAYMELRSLTSEDSAVYYCASGPFAYWGQGTLVTVSA VL: DIVMTQSQKFMSTSVGDRVSVTCKASQNVGTNVAWYQQKPGQSPKALIYSASYRYSGVPDRFTGSGSGTDFTLTISNVQSEDLAEYFCQQYNSYPWTFGGGTKLEIKR	binds
5an109 (antibody, V domains shown, Murine) VH: EVQLQQSGPELVKPGASVKISCKASGYTFSDYYYMNWVKKSHGKSLEWIGYIFPKTGGTNYNQRFKGKATLTVDKSSSTAYMELRSLTSEDSAVYYCASGPFAYWGQGTLVTVSA VL: EIVLTQSPAIMSASPGEKVTMTCSASSSVSYMYWYQQKPGSSPRLLIYDTSNLASGVPVRFSGSGSGTSYSLTISRMEAEDAATYYCQQWSSYPPTFGGGTKLEIKR	binds
5an181 (antibody, V domains shown, Murine) VH: EVQLQQSGPELVKPGASVKISCKASGYTFSDYYYMNWVKKSHGKSLEWIGYIFPKTGGTNYNQRFKGKATLTVDKSSSTAYMELRSLTSEDSAVYYCASGPFAYWGQGTLVTVSA VL: EIVLTQSPAIMSASPGEKVTMTCRASSSVSSSYLHWYQQKSGASPKLWIYSTSNLASGVPARFSGSGSGTSYSLTISSVEAEDAATYYCQQYSGYPLTFGAGTKLELKR	binds
5an055 (antibody, V domains shown, Murine) VH: EVQLQQSGPELVKPGASVKISCKASGYTFSDYYYMNWVKKSHGKSLEWIGYIFPKTGGTNYNQRFKGKATLTVDKSSSTAYMELRSLTSEDSAVYYCASGPFAYWGQGTLVTVSA VL: EIVLTQSPAIMSASPGEKVTLTCSASSSVSSSYLYWYQQKPGSSPKLWIYSTSNLASGVPARFSGSGSGTSYSLTISSMEAEDAASYFCHQWSSYPPTFGGGTKLEIKR	binds
5an053 (antibody, V domains shown, Murine) VH: EVQMQQSGPELVKPGASVKISCKASGYTFSDYYYMNWVKKSHGKSLEWIGYIFPKTGGTNYNQRFKGKATLTVDKSSSTAYMELRSLTSEDSAVYYCASGPFAYWGQGTLVTVSA VL: EIVLTQSPVIMSASPGEKVTMICSASSSISYMHWYQQKPGTSPKRWIYDTSKLASGVPARFSGSGSGTSYSLTISIMEAEDAATYYCHQRSSYPWTFGGGTKLEIKR	binds
5an110ME (antibody, V domains shown, Murine) VH: EVQLQQSGPELVKPGASVKISCKASGYTFSDYYYMNWVKKSHGKSLEWIGYIFPKTGGTNYSQRFKGKATLTVDKSSSTAYMELRSLTSEDSAVYYCASGPFAYWGQGTLVTVSA VL: DIVMTQSQKFMSTSVGDRVSVTCKASQNVGTNVAWYQQKPGQSPKALIYSASYRYSGVPDRFTGSGSGTDFTLTISNVQSEDLAEYFCQQYNSYPFTFGSGTKLEIKR	binds
5anG10 (antibody, V domains shown, Murine) VH: EVQLQQSGPELVKPGASVRISCKASGYTFNDYYYMNWVKQSHGKSLEWIGYIFPKTGGTHYNQRFKGKATLTVDKSSSTAYMELRSLTSEDSAVYYCASGPFAYWGQGTLVTVSA VL: QIVLTQSPAIMSASPGEKVTMTCSASSSISYMHWYQQKPGTSPKRWIYDTSKLASGVPARFSGSGSGTSYSLTISSMEAEDAATYYCHQRRSYPWTFGGGTKLEIKR	binds
5an177ME (antibody, V domains shown, Murine) VH: EVKLVESGGGLVKPGGSLKLSCAASGITFSSYYMAWVRQTPDKRLEWVATISSGGSYTYYPDNVKGRFTISRDNAKNTLYLQMSSLKSEDTAMYYCTRYYEDDAMDYWGQGTSVTVSS VL: EIVLTQSPAIMSASPGEKVTMTCSASSSVSYMHWYQQKSGTSPKRWIYDTSKLASGVPARFSGSGSGTSYSLTISSMEAEDAATYYCQQWSSNPLTFGAGTKLELKR	binds
5an188ME (antibody, V domains shown, Murine) VH: EVQLQQSGAELVKPGTSVKLSCKASGYTFTSYWMHWVKQRPGQGLEYIGEIHPSSGHTNYHEKFKSKATLTVDKSSSTAYMQLSSLTSEDSAVYYCARASLLRAYAMDYWGQGTSVTVSS VL: DIVLTQSPASLAVSLGQRATISCRASESVDSYGNSFMHWYQQKPGQPPKLLIYLASNLESGVPARFSGSGSRTDFTLTIDPVEADDAATYYCQQNNEDPLTFGAGTKLELKR	binds
5an183 (antibody, V domains shown, Murine) VH: EVQLQQPGSVLVRPGATVKLSCKASGFTFTSSWMHWAKQRPGQGLEWIGEIHTSGHTNYNEKFKGKATLTLDTSSSTAYVDISSLTSEDSAVYYCARGGLRRGYAMDYWGQGTSVTVSS VL: DIVLTQSPASLAVSLGQRATISCRASESVDSYGNSFMHWYQQKPGQPPKLLIYRASNLESGIPARFSGSGSRTDFTLTINPVEADDVATYYCQQSNEDPLTFGAGTKLELKR	binds
5an185ME (antibody, V domains shown, Murine) VH: EVQPQQSGPELVKPGSSVKISCKASGYTFTDYSMDWVKQSHGKSLEWIGAIHLNTGYTNYNQKFKGKATLTVDKSSSTAYMELRSLTSEDSAVYYCARGFYDGYSPMDYWGQGTSVTVSS VL: DIVLTQSPASLAVSLGQRATISCRASESVDSYGNSFMHWYQQKPGQPPKLLIYRASNLESGIPARFSGSGSRTDFTLTINPVEADDVATYYCQQSNEDPLTFGAGTKLELKR	binds

target: T1, human C5a; experiment: SPR (Biacore); antibody captured by anti-human Fc on CM5 chip, human C5a 0.6-5.9 nM as analyte; 1:1 Langmuir fit
Procedure: See, e.g., Karlsson and Larsson (2004) Methods Mol Biol 248:389-415. […] The surface was regenerated with 20 mM HCl, 0.02% P20 after each cycle to remove bound antibody and antigen. The data was evaluated using Biacore BlAevaluation software using a 1:1 Langmuir Model Fit (Rmax:Global Fit; R1:Local Fit). Kinetics information such as (kₐ: Association Rate constant), (kd:Dissociation Rate constant) and KD (Equilibrium Dissociation constant) was obtained from the fit. These experiments were for screening purposes with a minimal number of analyte concentrations (3 to 4) with 1 duplicate.

Binder	Kd [nM]	koff [s⁻¹]	kon [M⁻¹ s⁻¹]
BNJ369 (antibody, human IgG2, kappa, Humanized full length IgG) heavy: QVQLVQSGAEVKKPGASVKVSCKASGYTFTDYSMDWVRQAPGQGLEWMGAIHLNTGYTNYNQKFKGRVTMTRDTSTSTVYMELSSLRSEDTAVYYCARGFYDGYSPMDYWGQGTTVTVSSASTKGPSVFPLAPCSRSTSESTAALGCLVKDYFPEPVTVSWNSGALTSGVHTFPAVLQSSGLYSLSSVVTVPSSNFGTQTYTCNVDHKPSNTKVDKTVERKCCVECPPCPAPPVAGPSVFLFPPKPKDTLMISRTPEVTCVVVDVSQEDPEVQFNWYVDGVEVHNAKTKPREEQFNSTYRVVSVLTVLHQDWLNGKEYKCKVSNKGLPSSIEKTISKAKGQPREPQVYTLPPSQEEMTKNQVSLTCLVKGFYPSDIAVEWESNGQPENNYKTTPPVLDSDGSFFLYSRLTVDKSRWQEGNVFSCSVMHEALHNHYTQKSLSLSLGK light: DIVMTQSPDSLAVSLGERATINCRASESVDSYGNSFMHWYQQKPGQPPKLLIYRASNLESGVPDRFSGSGSGTDFTLTISSLQAEDVAVYYCQQSNEDPYTFGGGTKVEIKRTVAAPSVFIFPPSDEQLKSGTASVVCLLNNFYPREAKVQWKVDNALQSGNSQESVTEQDSKDSTYSLSSTLTLSKADYEKHKVYACEVTHQGLSSPVTKSFNRGEC	0.0531	0.000223	4.19e+06
BNJ381 (antibody, human IgG2, kappa, V domains shown, Humanized full length IgG; Light chain CDR2 is humanized) VH: QVQLVQSGAEVKKPGASVKVSCKASGYTFTDYSMDWVRQAPGQGLEWMGAIHLNTGYTNYNQKFKGRVTMTRDTSTSTVYMELSSLRSEDTAVYYCARGFYDGYSPMDYWGQGTTVTVSS VL: DIVMTQSPDSLAVSLGERATINCRASESVDSYGNSFMHWYQQKPGQPPKLLIYWASTRESGVPDRFSGSGSGTDFTLTISSLQAEDVAVYYCQQSNEDPYTFGGGTKVEIKR	0.0815	0.000209	2.57e+06
